In data set [1] the target is T1, Aspergillus niger asparaginase, wild type, SEQ ID NO: 10 (Aspergillus niger, UniProt A2QBE5).
T1 construct: enzyme preparation tested in Nessler assay
T1 sequence (A2QBE5 18-378): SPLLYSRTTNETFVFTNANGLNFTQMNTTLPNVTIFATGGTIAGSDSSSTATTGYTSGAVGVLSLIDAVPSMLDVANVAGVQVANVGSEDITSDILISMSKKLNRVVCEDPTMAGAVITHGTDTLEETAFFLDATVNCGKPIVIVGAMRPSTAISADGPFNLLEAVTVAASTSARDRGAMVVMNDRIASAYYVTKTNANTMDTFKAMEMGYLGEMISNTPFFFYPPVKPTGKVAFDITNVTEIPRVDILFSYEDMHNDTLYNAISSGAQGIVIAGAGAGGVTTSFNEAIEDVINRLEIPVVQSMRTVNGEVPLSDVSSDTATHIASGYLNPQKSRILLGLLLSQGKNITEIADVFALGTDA
As to the kind of experiment: Effect of xylitol on asparaginase activity, A. niger wt. It is filed as biochemical. The settings on record: buffer 70.8 g + 29.2 g xylitol, pH 6, 37° C.; activity in buffer without xylitol = 100%. As for the experimental part: (§1) Example 13: Asparaginase Activity Assay—Used in Example 14
(§2) Asparaginase hydrolyses asparagine to aspartic acid and ammonium. Produced ammonium is determined using Nessler's reagent.
(§3) Activity is determined relative to a standard of known activity in ASNU or to a relevant control sample. Activity as determined according to this assay is referred to as nASNU.
(§4) Mix buffer and asparagine and let it equilibrate at 37° C. for 10-15 min. Add enzyme standard or sample and incubate for 10 min at 37° C. Add TCA to stop the reaction.
(§5) Ammonium Determination (Nessler Assay)
(§6) Milli-Q water, sample and Nessler's reagent is added to the microtiter plate. Shake for 10 sec and then leave to incubate for 10 min before shaking again and reading at 440 nm.
(§7) Example 14: Testing the Effect of NaCl and Xylitol on Enzyme Activity
(§8) To test the effect of NaCl or xylitol on asparaginase activity, the compounds were added directly to the buffer and asparaginase activity measured using the standard assay described in Example 13. NaCl was tested in two concentrations and xylitol in one.
(§9) Buffer: 20 mM citric acid buffer, pH 6, 0.001% triton X100:
(§10) Xylitol: 70.8 g buffer+29.2 g xylitol
(§11) The measured activity in the presence of either NaCl or xylitol was compared to the activity in buffer without NaCl and xylitol (set as 100%).

Data set [2] concerns the target T2, Aspergillus oryzae asparaginase, wild type (Wt enzyme), SEQ ID NO: 2 (Aspergillus oryzae, UniProt Q2URI4).
T2 construct: Nessler assay with xylitol or NaCl
As to the kind of experiment: Effect of xylitol on asparaginase activity, Wt enzyme. The settings on record: buffer 70.8 g + 29.2 g xylitol, pH 6, 37° C.; activity in buffer without xylitol = 100%. It is filed as biochemical. As for the experimental part:
as §1, §2, §3, §4, §5, §6, §7, §8, §9, §10, §11

Substrate in data set [3]: NC(=O)C[C@H](N)C(=O)O
Kind of data set: Km and kcat determination, WT. It counts as biochemical, Aspergillus oryzae. The settings on record: other: L-asparagine 0.22-26.6 mM, pH 5.0, 50° C., 10 min. As for the experimental part:
(§12) Example 15: Km and Kcat Determination
(§13) Purified enzyme was diluted with 20 mM sodium acetate buffer pH 5.5 to a solution of a specified activity around 2 rASNU/ml. Ten microliters of enzyme solution was added to 100 microL of preincubated substrate solution containing L-asparagine in different concentration (0.22-26.6 mM) constructed by dissolving L-asparagine monohydrate in 100 mM sodium acetate buffer pH 5.0 including 0.02% TritonX-100. After 10 min incubation at 50° C., the amount of generated ammonia in the reaction mixture was measured by using Ammonia Test Kit (Wako Pure Chemicals, Japan) following the package insert protocol. The Km and Vmax were determined from Michaelis-Menten equation, and kcat was calculated using Vmax.

Substrate in data set [4]: NC(=O)C[C@H](N)C(=O)O
Kind of data set: Km and kcat determination, JN161. It counts as biochemical, Aspergillus oryzae. The settings on record: other: L-asparagine 0.22-26.6 mM, pH 5.0, 50° C., 10 min. As for the experimental part: as §12, §13

Substrate in data set [5]: NC(=O)C[C@H](N)C(=O)O
As to the kind of experiment: Km and kcat determination, JN178. It is filed as biochemical, Aspergillus oryzae. The settings on record: other: L-asparagine 0.22-26.6 mM, pH 5.0, 50° C., 10 min. The method, then: as §12, §13

Substrate in data set [6]: NC(=O)C[C@H](N)C(=O)O
Kind of data set: Km and kcat determination, JN181. It counts as biochemical, Aspergillus oryzae. The settings on record: other: L-asparagine 0.22-26.6 mM, pH 5.0, 50° C., 10 min. The method, then: as §12, §13

Substrate in data set [7]: NC(=O)C[C@H](N)C(=O)O
As to the kind of experiment: Km and kcat determination, JN182. It is filed as biochemical, Aspergillus oryzae. The settings on record: other: L-asparagine 0.22-26.6 mM, pH 5.0, 50° C., 10 min. The method, then: as §12, §13

Substrate in data set [8]: NC(=O)C[C@H](N)C(=O)O
As to the kind of experiment: Km and kcat determination, JN167. It is filed as biochemical, Aspergillus oryzae. The following applies: other: L-asparagine 0.22-26.6 mM, pH 5.0, 50° C., 10 min. The method, then: as §12, §13

Substrate in data set [9]: NC(=O)C[C@H](N)C(=O)O
Kind of data set: Km and kcat determination, JN180. It counts as biochemical, Aspergillus oryzae. The following applies: other: L-asparagine 0.22-26.6 mM, pH 5.0, 50° C., 10 min. As for the experimental part:
as §12, §13

Substrate in data set [10]: NC(=O)C[C@H](N)C(=O)O
As to the kind of experiment: Km and kcat determination, JN183. It counts as biochemical, Aspergillus oryzae. The settings on record: other: L-asparagine 0.22-26.6 mM, pH 5.0, 50° C., 10 min. The method, then:
as §12, §13

Substitutions are numbered along the chain they refer to. In names and notes the source's numbering stands.

In the case of `OC[C@@H](O)[C@H](O)[C@@H](O)CO` [xylitol], the “% activity xylitol” value in data set [1] was found to be 176%; in data set [2], 158%.

B1: Aspergillus oryzae asparaginase, wild type (WT), SEQ ID NO: 2 (Aspergillus oryzae RIB40) (protein)
chain: ATDSNVTYVFTNPNGLNFTQMNTTLPNVTIFATGGTIAGSSADNTATTGYKAGAVGIQTLIDAVPEMLNVANVAGVQVTNVGSPDITSDILLRLSKQINEVVCNDPTMAGAVVTHGTDTLEESAFFLDATVNCRKPVVIVGAMRPSTAISADGPLNLLQSVTVAASPKARDRGALIVMNDRIVSAFYASKTNANTVDTFKAIEMGNLGEVVSNKPYFFYPPVKPTGKTEVDIRNITSIPRVDILYSYEDMHNDTLYSAIDNGAKGIVIAGSGSGSVSTPFSAAMEDITTKHNIPIVASTRTGNGEVPSSAESSQIASGYLNPAKSRVLLGLLLAQGKSIEEMRAVFERIGVA
notes: purified
A word on the Km: it is the substrate concentration at which the rate is half of its maximum. One may read the kcat as the maximal rate divided by the concentration of active sites. B1: in data set [3], the Km amounted to 950 µM and the kcat was 121 s⁻¹.

B2: Aspergillus oryzae asparaginase variant JN161: JN070 (N70K S307A A323R T327V A349Q S351A V353I, SEQ ID NO: 4) with K122A P241E K290V S299A S338W (Aspergillus … (protein)
chain: ATDSNVTYVFTNPNGLNFTQMNTTLPNVTIFATGGTIAGSSADKTATTGYKAGAVGIQTLIDAVPEMLNVANVAGVQVTNVGSPDITSDILLRLSAQINEVVCNDPTMAGAVVTHGTDTLEESAFFLDATVNCRKPVVIVGAMRPSTAISADGPLNLLQSVTVAASPKARDRGALIVMNDRIVSAFYASKTNANTVDTFKAIEMGNLGEVVSNKEYFFYPPVKPTGKTEVDIRNITSIPRVDILYSYEDMHNDTLYSAIDNGAVGIVIAGSGAGSVSTPFAAAMEDITTKHNIPIVRSTRVGNGEVPSSAEWSQIASGYLNPQKARILLGLLLAQGKSIEEMRAVFERIGVA
notes: purified; expressed in Aspergillus
In the case of B2, in data set [4], the Michaelis constant (Km) stood at 690 µM and the kcat is 172 s⁻¹.

B3: Aspergillus oryzae asparaginase variant JN178: JN070 (N70K S307A A323R T327V A349Q S351A V353I, SEQ ID NO: 4) with K122A K240R P241E S299A S334P (Aspergillus … (protein)
chain: B2 chain with K214R, V264K, S308P, W312S
notes: as for B2
For the molecule B3, in [5], the Michaelis constant (Km) was found to be 880 µM and the kcat stood at 127 s⁻¹.

B4: Aspergillus oryzae asparaginase variant JN181: JN070 (N70K S307A A323R T327V A349Q S351A V353I, SEQ ID NO: 4) with K122A K240R P241E K253R S299A S334P E337S … (protein)
chain: B2 chain with K214R, K227R, V264K, S308P, E311S, W312S
notes: as for B2
On to B4, for which, in data set [6], the Km turned out to be 580 µM and the kcat worked out at 138 s⁻¹.

B5: Aspergillus oryzae asparaginase variant JN182: JN070 (N70K S307A A323R T327V A349Q S351A V353I, SEQ ID NO: 4) with K122A P241E S299A S334P E337S (Aspergillus … (protein)
chain: B2 chain with V264K, S308P, E311S, W312S
notes: as for B2
On to B5, for which, in data set [7], the Michaelis constant (Km) was found to be 910 µM and the kcat turned out to be 186 s⁻¹.

B6: Aspergillus oryzae asparaginase variant JN167: JN070 (N70K S307A A323R T327V A349Q S351A V353I, SEQ ID NO: 4) with K122A P241E S299A S334P (Aspergillus oryzae … (protein)
chain: B2 chain with V264K, S308P, W312S
notes: as for B2
As for B6, in data set [8], the Michaelis constant (Km) is 670 µM and the kcat was found to be 127 s⁻¹.

B7: Aspergillus oryzae asparaginase variant JN180: JN070 (N70K S307A A323R T327V A349Q S351A V353I, SEQ ID NO: 4) with K122A K240R P241E S299A S334P E337S … (protein)
chain: B2 chain with K214R, V264K, S308P, E311S, W312S
notes: as for B2
With B7, in data set [9], the Michaelis-Menten constant (Km) turned out to be 830 µM and the kcat worked out at 185 s⁻¹.

B8: Aspergillus oryzae asparaginase variant JN183: JN070 (N70K S307A A323R T327V A349Q S351A V353I, SEQ ID NO: 4) with K122A P241E S299A S334P S338W (Aspergillus … (protein)
chain: B2 chain with V264K, S308P
notes: as for B2
Regarding B8, in [10], the Km was 910 µM and the catalytic constant (kcat) stood at 189 s⁻¹.
